Results reported in US9018171B2, “Uses of an immunomodulatory protein (GMI) from Ganoderma microsporum” (Mycomagic Biotechnology Co., Ltd., priority 2010, dated 2015).
Entries after “also recorded” stand apart in the source; their conditions may differ. Read-outs that look alike come from different tables or passages of the source.

Assays:
[1] = system: T-47D; assay: NCI60 in vitro screening, Breast Cancer; assay type: cell-based
[2] = system: BT-549
[3] = system: Rac1; assay: Rac1 and Cdc42 activity assay (pull-down); assay type: cell-based, human; details: A549 cells, GMI 4, 16 μg/ml 24 h, 10 ng/mL EGF 3 min
Protocol: (§1) A549 cells were seeded onto 100 mm plates and cultured to around 80% confluence. The cells were then treated with various doses of GMI (4, 16 μg/ml). […] A549 cells were pretreated with various concentrations of GMI for 24 h before being stimulated with 10 ng/mL EGF for 3 min. After that, cells were washed with cold PBS and lysated on the dish in RIPA buffer. Active GTP-bound Rac1 or Cdc42 was pulled down using the GST-PBD fusion protein of PAK1 immobilized on glutathione beads and active Rac1 and Cdc42 were detected with anti-Rac1 and anti-Cdc42 antibodies.
(§2) Active Rac1 and Cdc42 were determined by pull-down assay (Binker et al., 2009, Biochem Biophys Res Commun, 379, 445-450). Serum-starved A549 cells were or were not stimulated for 3 min with EGF and then collected in 800 μl of ice-cold lysis-buffer. Lysates were centrifuged to remove cellular debris. From each supernatant, 5 μl were taken out to measure protein content using Protein Assay Kit (Bio-Rad, Hercules, Calif.). Twenty μl were removed to determine total Rac1 in total lysate, and the remaining volume was used for the pull-down assay. Lysates containing equal amounts of proteins were then mixed with 15 μg of GST-PAK-PBD-beads (Pierce). Samples for total Rac1 and Cdc42 in total lysate and the pelleted beads were diluted in Laemmli sample-buffer and boiled. The proteins were separated using SDS-PAGE (12% gel). […]

[4] = system: Cdc42; assay: Rac1 and Cdc42 activity assay (pull-down); assay type: cell-based, human; details: A549 cells, GMI 4, 16 μg/ml 24 h, 10 ng/mL EGF 3 min
Protocol: as §1, §2

[5] = system: LOX IMVI; assay: NCI60 in vitro screening, Melanoma; assay type: cell-based; details: one dose
[6] = system: CAKI-1; assay: NCI60 in vitro screening, Renal Cancer; assay type: cell-based
[7] = system: A549 cells; assay: Wound-healing assay; assay type: cell-based, human; details: 24 h
Protocol: Wound-healing assay was carried out to evaluate the inhibitory effects of (A) GMI or (B) AG1478 on A549 cell migration. Confluent monolayers of A549 cells were scarred, and repair was monitored microscopically after 24 h of treatment with (A) GMI or (B) AG1478. The cells migrating into the wound area were counted on the basis of the dashed line as time zero. On wound-healing assay, the cancer cells were cultured onto 24-well plates and grown in medium containing 10% FBS to nearly confluent cell monolayer. A plastic pipette tip was used to draw a linear “wound” in the cell monolayer of each well. The monolayer was then washed twice with PBS to remove debris or detached cells, and GMI was added at different concentrations ([…]). PBS was added to the control well as the solvent control. After 24 h of incubation, the cells were washed twice with PBS, fixed with 95% alcohol, and stained with 10% Giemsa solution (Merck). The cells were photographed under a light microscope (magnification, ×200). The experiments were performed in triplicate. After incubation with 2-8 μg/ml of GMI for 24 h, the cells that migrated to the denuded zone were photographed.

[8] = system: A549/ATCC; assay type: cell-based
[9] = system: UO-31; assay: NCI60 in vitro screening, Renal Cancer; assay type: cell-based
[10] = system: NCI-H460; assay type: cell-based

B1: GMI: immunomodulatory protein from Ganoderma microsporum, amino acid sequence SEQ ID NO: 3, manufactured by Mycomagic Biotechnology Co., Ltd. (protein, listed as Ganoderma microsporum)
chain: MSDTALIFTLAWNVKQLAFDYTPNWGRGRPSSFIDTVTFPTVLTDKAYTYRVVVSGKDLGVRPSYAVESDGSQKINFLEYNSGYGIADTNTIQVYVIDPDTGNNFIVAQWN
[1]
  TGI: >1.25E2
[1]; Log10 Concentration 0.1
  Percent Growth: 88%
[1]; Log10 Concentration 1.1
  Percent Growth: 43%
[1]; Log10 Concentration 2.1
  Percent Growth: 13%
[1]; Log10 Concentration −0.9
  Percent Growth: 96%
[1]; Log10 Concentration −1.9
  Percent Growth: 101%
[1]; in µg/mL
  GI50: 8.63E0
[1]; one dose
  Growth Percent: 28.25%
[2]
  LC50: 7.24E1
[2]; BT-549
  TGI: 2.27E1
[2]; BT-549, Log10 Concentration 0.1
  Percent Growth: 100%
[2]; BT-549, Log10 Concentration 1.1
  Percent Growth: 26%
[2]; BT-549, Log10 Concentration 2.1
  Percent Growth: −74%
[2]; BT-549, Log10 Concentration −0.9
  Percent Growth: 98%
[2]; BT-549, Log10 Concentration −1.9
  Percent Growth: 104%
[2]; BT-549, one dose
  Growth Percent: −74.30%
[2]; BT-549, in µg/mL
  GI50: 5.89E0
[3]
  EGF-promoted Rac1 activity: little effect on Rac1; also recorded: little reduction in Rac1 activity
[4]
  EGF-promoted Cdc42 activity: inhibits Cdc42 activation; also recorded: reduced EGF-promoted Cdc42 activity in a dose-dependent manner
[5]
  Growth Percent: 67.70%
[6]; CAKI-1
  TGI: 7.29E1
[6]; CAKI-1, Log10 Concentration 0.1
  Percent Growth: 98%
[6]; CAKI-1, Log10 Concentration 1.1
  Percent Growth: 47%
[6]; CAKI-1, Log10 Concentration 2.1
  Percent Growth: −14%
[6]; CAKI-1, Log10 Concentration −0.9
  Percent Growth: 100%
[6]; CAKI-1, Log10 Concentration −1.9
  Percent Growth: 100%
[6]; CAKI-1, one dose
  Growth Percent: 96.04%
[6]; CAKI-1, in µg/mL
  GI50: 1.08E1
[7]; GMI 2-8 μg/ml
  A549 cell migration to the denuded zone: dose-dependently suppresses A549 cell migration
[7]; co-treated with EGF
  EGF-induced migration / wound closure activity: markedly decreased wound closure activity
[8]
  TGI: >1.25E2
[8]; Log10 Concentration 0.1
  Percent Growth: 94%
[8]; Log10 Concentration 1.1
  Percent Growth: 51%
[8]; Log10 Concentration 2.1
  Percent Growth: 8%
[8]; Log10 Concentration −0.9
  Percent Growth: 99%
[8]; Log10 Concentration −1.9
  Percent Growth: 102%
[8]; in µg/mL
  GI50: 1.31E1
[8]; one dose
  Growth Percent: 44.29%
[9]; UO-31
  TGI: 2.65E1
[9]; UO-31, Log10 Concentration 0.1
  Percent Growth: 119%
[9]; UO-31, Log10 Concentration 1.1
  Percent Growth: 38%
[9]; UO-31, Log10 Concentration 2.1
  Percent Growth: −77%
[9]; UO-31, Log10 Concentration −0.9
  Percent Growth: 102%
[9]; UO-31, Log10 Concentration −1.9
  Percent Growth: 97%
[9]; UO-31, one dose
  Growth Percent: 14.01%
[9]; UO-31, in µg/mL
  GI50: 8.79E0
  LC50: 7.22E1
[10]; NCI-H460
  TGI: >1.25E2
[10]; NCI-H460, Log10 Concentration 0.1
  Percent Growth: 100%
[10]; NCI-H460, Log10 Concentration 1.1
  Percent Growth: 91%
[10]; NCI-H460, Log10 Concentration 2.1
  Percent Growth: 33%
[10]; NCI-H460, Log10 Concentration −0.9
  Percent Growth: 104%
[10]; NCI-H460, Log10 Concentration −1.9
  Percent Growth: 103%
[10]; NCI-H460, one dose
  Growth Percent: 86.38%
[10]; NCI-H460, in µg/mL
  GI50: 6.47E1
